Measured values: patent US20140255299A1 (UNIVERSITY OF CENTRAL FLORIDA RESEARCH FOUNDATION, published 2014)

Target: the molecule itself
Assay: kinetics of calcein release from lipid vesicles; peptide self-association within the membrane

Protein	binding result
VTIFVAGVLTASLTIWEEMG (K189/K190 replaced by EE; also called CT20 Bax EE; CT20-EE) [Bax C-terminal 20-residue peptide, lysines replaced with glutamates (charge reversal mutant)]	binds
VTIFVAGVLTASLTIWLLMG (K189/K190 replaced by LL; also called CT20 Bax LL; CT20-LL) [Bax C-terminal 20-residue peptide, lysines replaced with leucines (charge neutralization mutant)]	binds
Ac-VTIFVAGVLTASLTIWKKMG-NH2 (Synthetic peptide of the last 20 amino acids of Bax; also called CT20 Bax WT; CT20 peptide) [Bax C-terminal 20-residue peptide (CT20p), wild type]	binds
